Legend:
[1] = biological target: Flag-AR 4CG (C125, 290, 327, 406G) (human) (UniProt P10275); experiment: co-IP; AR IP from PC3M/HA-Parp7 cells stably expressing Flag-tagged WT AR or Cys-to-Gly mutants, treated +R1881; probed for AR, ADP-ribosylation, Dtx3L and Parp9
Parp7 = biological target: T1, Parp7 (Homo sapiens, UniProt Q7Z3E1); experiment: in vitro ADP-ribosylation of AR and automodification with recombinant Parp7 and NAD+; assay type: biochemical
T1 construct: gene TIPARP; N-terminal His6-T7-tagged Parp7 expressed in Sf21 insect cells
T1 sequence (Q7Z3E1 1-657): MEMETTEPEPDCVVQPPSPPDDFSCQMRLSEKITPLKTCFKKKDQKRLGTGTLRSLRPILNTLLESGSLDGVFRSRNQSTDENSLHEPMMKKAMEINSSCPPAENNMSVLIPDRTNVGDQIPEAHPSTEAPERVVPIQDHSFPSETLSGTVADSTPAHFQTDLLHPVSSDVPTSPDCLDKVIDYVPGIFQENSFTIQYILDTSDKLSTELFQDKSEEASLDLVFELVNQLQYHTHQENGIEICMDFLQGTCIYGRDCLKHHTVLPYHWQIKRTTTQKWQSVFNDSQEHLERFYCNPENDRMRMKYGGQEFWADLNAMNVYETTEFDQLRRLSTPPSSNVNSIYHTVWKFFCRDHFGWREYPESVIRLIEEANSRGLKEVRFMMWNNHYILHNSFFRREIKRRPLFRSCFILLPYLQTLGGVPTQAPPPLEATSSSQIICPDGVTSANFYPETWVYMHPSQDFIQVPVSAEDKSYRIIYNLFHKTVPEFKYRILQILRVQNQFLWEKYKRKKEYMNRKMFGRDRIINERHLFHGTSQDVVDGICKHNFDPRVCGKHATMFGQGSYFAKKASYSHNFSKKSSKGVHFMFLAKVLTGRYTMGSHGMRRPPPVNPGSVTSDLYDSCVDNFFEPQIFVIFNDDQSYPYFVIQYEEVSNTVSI

Flag-AR 4CG (C125, 290, 327, 406G) (human), sequence (P10275 whole entry C125G/C290G/C327G/C406G): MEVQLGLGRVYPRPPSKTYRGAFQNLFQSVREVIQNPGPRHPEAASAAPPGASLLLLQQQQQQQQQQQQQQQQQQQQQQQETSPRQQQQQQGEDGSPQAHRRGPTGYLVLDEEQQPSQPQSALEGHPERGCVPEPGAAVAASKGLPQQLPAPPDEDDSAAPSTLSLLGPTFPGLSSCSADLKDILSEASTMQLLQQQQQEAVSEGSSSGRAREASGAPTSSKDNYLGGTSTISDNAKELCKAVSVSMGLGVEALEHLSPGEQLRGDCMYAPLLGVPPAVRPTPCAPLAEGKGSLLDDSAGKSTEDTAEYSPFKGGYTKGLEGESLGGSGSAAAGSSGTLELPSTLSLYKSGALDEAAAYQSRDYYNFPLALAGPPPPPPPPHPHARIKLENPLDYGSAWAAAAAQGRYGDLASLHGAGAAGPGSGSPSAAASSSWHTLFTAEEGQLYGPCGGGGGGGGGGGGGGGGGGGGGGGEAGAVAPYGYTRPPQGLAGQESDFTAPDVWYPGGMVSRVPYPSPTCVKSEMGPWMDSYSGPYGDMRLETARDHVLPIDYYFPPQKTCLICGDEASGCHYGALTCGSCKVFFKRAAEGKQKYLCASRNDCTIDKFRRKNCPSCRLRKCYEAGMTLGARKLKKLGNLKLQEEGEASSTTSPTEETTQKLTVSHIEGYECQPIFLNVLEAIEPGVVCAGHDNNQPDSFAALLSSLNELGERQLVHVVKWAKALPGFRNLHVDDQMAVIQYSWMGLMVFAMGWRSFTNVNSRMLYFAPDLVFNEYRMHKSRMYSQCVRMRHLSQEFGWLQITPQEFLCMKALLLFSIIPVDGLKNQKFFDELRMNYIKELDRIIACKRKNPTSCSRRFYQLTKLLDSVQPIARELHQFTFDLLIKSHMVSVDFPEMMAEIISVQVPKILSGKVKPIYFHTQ

Row | Molecule | complex formation, percent of WT [1] | in vitro ADP-ribosylation of AR and automodification with recombinant Parp7 and (Parp7)
1 | Parp9 (enzyme) | 50 % of WT | –
2 | NC(=O)c1ccc[n+]([C@@H]2O[C@H](COP(=O)([O-])OP(=O)(O)OC[C@H]3O[C@@H](n4cnc5c(N)ncnc54)[C@H](O)[C@@H]3O)[C@@H](O)[C@H]2O)c1 [NAD^+] | – | Combining recombinant Parp7, NAD^+, and bead-immobilized AR reconstituted ADP-ribosylation

Reference: PMC8113490, “Androgen signaling uses a writer and a reader of ADP-ribosylation to regulate protein complex assembly” (Nature Communications, 2021)
